Experimental data from article PMC4191429, “Interactions of the yeast mitochondrial RNA polymerase with the +1 and +2 promoter bases dictate transcription initiation efficiency”.

B1: 15S rRNA promoter (+1+2 AA), 2-AP at -1 template (dsDNA)
DNA 1: ATAATTTATTTATTATTATATAAGTAATAAATAATAGTTTTATCT
DNA 2: AGATAAAACTATTATTTATTACTTATATAATAATAAATAAATTAT
modifications: 2-aminopurine at -1 template
B2: 21S rRNA promoter (+1+2 AG), 2-AP at -1 template (dsDNA)
DNA 1: TATTATTATTATTATATATATAAGTAGTAAAAAGTAGAATAATCT
DNA 2: AGATTATTCTACTTTTTACTACTTATATATATAATAATAATAATA
modifications: 2-aminopurine at -1 template

Tests used:
Details in all cases: protein: recombinant;recombinant; tags: Ni2+ column purified; copies: 1;1; label: 2-aminopurine
[1] = target: T1, Rpo41 (mitochondrial RNA polymerase);Mtf1 (mitochondrial transcription initiation factor) (Saccharomyces cerevisiae;Saccharomyces …, UniProt P13433;P14908 1-1351;2-341, |); test: 2-aminopurine fluorescence; ATP; 2-AP assay buffer, salt, pH and temperature not in the material (transcription assays at 25 C)
T1 sequence (P13433 whole entry, chain 1 of 2): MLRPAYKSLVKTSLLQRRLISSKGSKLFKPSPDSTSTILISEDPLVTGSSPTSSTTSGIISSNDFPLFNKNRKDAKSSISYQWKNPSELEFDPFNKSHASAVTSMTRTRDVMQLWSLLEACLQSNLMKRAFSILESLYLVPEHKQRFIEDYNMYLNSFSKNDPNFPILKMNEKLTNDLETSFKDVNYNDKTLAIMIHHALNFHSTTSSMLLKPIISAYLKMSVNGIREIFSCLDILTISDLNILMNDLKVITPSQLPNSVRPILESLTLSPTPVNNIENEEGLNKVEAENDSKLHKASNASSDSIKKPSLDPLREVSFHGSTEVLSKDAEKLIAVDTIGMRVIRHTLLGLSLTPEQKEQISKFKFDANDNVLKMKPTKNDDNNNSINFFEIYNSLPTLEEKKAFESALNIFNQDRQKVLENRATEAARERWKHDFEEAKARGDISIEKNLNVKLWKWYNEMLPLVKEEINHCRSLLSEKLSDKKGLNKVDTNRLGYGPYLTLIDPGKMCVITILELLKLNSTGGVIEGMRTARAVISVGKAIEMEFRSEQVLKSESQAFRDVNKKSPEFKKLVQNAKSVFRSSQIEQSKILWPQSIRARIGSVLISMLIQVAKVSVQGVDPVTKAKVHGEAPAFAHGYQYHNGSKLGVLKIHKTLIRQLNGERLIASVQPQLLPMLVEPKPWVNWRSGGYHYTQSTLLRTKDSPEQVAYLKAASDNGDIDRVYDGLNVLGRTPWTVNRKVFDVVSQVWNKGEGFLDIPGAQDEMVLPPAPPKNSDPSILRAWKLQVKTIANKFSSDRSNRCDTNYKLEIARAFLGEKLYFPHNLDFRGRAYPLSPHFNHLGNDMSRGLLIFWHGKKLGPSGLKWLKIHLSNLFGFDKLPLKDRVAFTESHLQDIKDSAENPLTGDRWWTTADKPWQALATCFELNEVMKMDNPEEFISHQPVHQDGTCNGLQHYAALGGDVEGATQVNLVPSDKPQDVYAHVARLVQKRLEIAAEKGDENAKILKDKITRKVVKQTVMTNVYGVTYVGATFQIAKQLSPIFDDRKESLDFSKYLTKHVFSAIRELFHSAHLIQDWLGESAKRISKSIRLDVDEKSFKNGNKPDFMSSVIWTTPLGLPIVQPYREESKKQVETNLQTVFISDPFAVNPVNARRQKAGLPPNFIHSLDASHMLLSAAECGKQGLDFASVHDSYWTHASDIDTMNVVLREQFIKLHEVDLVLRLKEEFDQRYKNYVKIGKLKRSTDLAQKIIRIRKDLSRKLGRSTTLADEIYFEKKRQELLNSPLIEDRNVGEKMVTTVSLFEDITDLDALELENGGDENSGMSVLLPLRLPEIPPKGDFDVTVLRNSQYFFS
T1 sequence (P14908 2-341, chain 2 of 2): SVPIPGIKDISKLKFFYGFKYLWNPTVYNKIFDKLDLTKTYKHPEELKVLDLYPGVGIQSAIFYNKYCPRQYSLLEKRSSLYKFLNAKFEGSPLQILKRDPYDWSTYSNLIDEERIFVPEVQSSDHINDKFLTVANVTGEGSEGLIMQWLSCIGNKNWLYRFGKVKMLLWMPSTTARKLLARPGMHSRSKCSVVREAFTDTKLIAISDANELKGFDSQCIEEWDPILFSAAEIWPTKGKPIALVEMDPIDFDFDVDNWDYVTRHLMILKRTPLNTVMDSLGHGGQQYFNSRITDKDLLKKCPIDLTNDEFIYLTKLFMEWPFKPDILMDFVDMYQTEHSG

[2] = target: T1, Rpo41 (mitochondrial RNA …); test: 2-aminopurine fluorescence; no NTP; 2-AP assay buffer, salt, pH and temperature not in the material (transcription assays at 25 C)
[3] = target: T1, Rpo41 (mitochondrial RNA …); test: 2-aminopurine fluorescence; ATP+GTP; 2-AP assay buffer, salt, pH and temperature not in the material (transcription assays at 25 C)

Binder	binding signal [1]	binding signal [2]	binding signal [3]
B1	~4 further fold 2-AP fluorescence increase over the complex without NTP	~5 fold 2-AP fluorescence increase	
B2		~5 fold 2-AP fluorescence increase	~4 further fold 2-AP fluorescence increase over the complex without NTP
